What was measured:
[1] = tested on: H3K4me3, H3K9me3 and H3K27me3; conditions: previously demonstrated; cited from earlier work
GST-fusion CHD4 PHD2 = GST-fusion CHD4 PHD2 (Homo sapiens, UniProt Q14839); assay: Pull-down of GST-CHD4 PHD2 by biotinylated histone peptides in the absence of 2; format: binding; conditions: absence of 2, Western blot
CHD4 PHD2 finger = CHD4 PHD2 finger (Homo sapiens, UniProt Q14839); conditions: read-out: Kd of CHD4 PHD2 for histone peptide; cited from earlier work
CHD4 PHD2 finger, sequence (Q14839 449-496 limits assumed): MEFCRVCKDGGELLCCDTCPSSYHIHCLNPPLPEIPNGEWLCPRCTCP

GST-fusion CHD4 PHD2, sequence (Q14839 449-496 limits assumed): as above

binding of GST–CHD4 PHD2 to biotinylated histone peptide (GST-fusion CHD4 PHD2)	Compound	binding to trimethylated lysine peptides H3K4me3, H3K9me3 and H3K27me3 [1]	Kd (CHD4 PHD2 finger) [µM]
–	O=S(=O)(O)c1cc2c(O)c(c1)Cc1cc(S(=O)(=O)O)cc(c1O)Cc1cc(S(=O)(=O)O)cc(c1O)Cc1cc(S(=O)(=O)O)cc(c1O)C2 [Compound 1, p-sulfonatocalix[4]arene]	equally well	–
significantly weaker	H3K4me3: biotinylated histone H3 peptide (residues 1–20) trimethylated at Lys4 [Compound H3K4me3]	–	~2000
no interaction	H3K27me3: biotinylated histone H3 peptide (residues 21–44) trimethylated at Lys27 [Compound H3K27me3]	–	–

Source: article PMC4454452 (The Biochemical journal, 2014)
